Reference: US9212226B2, “Amino acid sequences directed against CXCR4 and other GPCRs and compounds comprising the same” (Ablynx N.V., priority 2008, dated 2015)
Entries after “also recorded” stand apart in the source; their conditions may differ. Each block holds one molecule with its values, some of them ahead of it.

Columns and labels:
CXCR6 = CXCR6 (Homo sapiens, UniProt O00574); assay: CRE/β-galactosidase reporter gene selectivity screen, CXCR6; assay type: cell-based; conditions: up to 2.5, forskolin 3 μM, agonist at 50-80% Emax
Chain of CXCR6 (O00574 whole entry, species assumed): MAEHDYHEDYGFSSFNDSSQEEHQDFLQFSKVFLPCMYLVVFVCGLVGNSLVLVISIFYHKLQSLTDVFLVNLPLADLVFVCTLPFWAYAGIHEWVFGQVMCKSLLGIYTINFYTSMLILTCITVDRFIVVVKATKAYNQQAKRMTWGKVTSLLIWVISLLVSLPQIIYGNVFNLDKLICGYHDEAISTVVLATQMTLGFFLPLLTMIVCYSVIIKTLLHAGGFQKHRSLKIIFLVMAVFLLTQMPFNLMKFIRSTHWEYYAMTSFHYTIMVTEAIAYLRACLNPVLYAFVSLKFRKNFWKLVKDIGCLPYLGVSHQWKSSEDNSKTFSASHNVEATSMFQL
Procedure: (§1) Data are shown as means±S.E.M. (n=2-3).
(§2) HEK293T cells were maintained at 37° C. in a humidified 5% CO2, 95% air atmosphere in Dulbecco's modified Eagle's medium (DMEM) containing 2 mM L-glutamine, 50 IU/ml penicillin, 50 μg/ml streptomycin, and 10% (v/v) fetal calf serum. Jurkat cells were cultured in a humidified 5% CO2, 95% air atmosphere in a 1:1 mixture of Dulbecco's modified Eagle's medium (DMEM) and Ham's F12 medium containing 2 mM L-glutamine, 50 IU/ml penicillin, 50 μg/ml streptomycin, and 10% (v/v) fetal calf serum. […] [^125 I]-Labelling— Radiolabeling of Nanobodies with ^125I was performed using the Iodo-gen method (Pierce, Rockford, Ill.) according to the manufacturer's protocol. ^125I-labeled Nanobodies was separated from free iodine (>99%) using a Sephadex G-25 gel filtration column (Amersham Biosciences, Piscataway, N.J.). […] Competition Binding Assays— Membranes from HEK293T cells transiently expressing CXCR3 or CXCR4 were prepared 48 h after transfection as follows. Cells were washed and scraped from the cell culture dishes with ice-cold PBS containing 1 mm EDTA. The scraped cells were pelleted at 1500×g for 10 min at 4° C. […] The total protein was determined using a Bradford assay (Bio-Rad). […] Plates were counted by liquid scintillation. […] The accumulated inositol phosphates were isolated by anion exchange chromatography and counted by liquid scintillation. […]

CXCR1 = molecular target: T1, CXCR1 (Homo sapiens, UniProt P25024); assay: CRE/β-galactosidase reporter gene selectivity screen, CXCR1; assay type: cell-based; conditions: up to 2.5, forskolin 3 μM, agonist at 50-80% Emax
T1 sequence (P25024 1-350): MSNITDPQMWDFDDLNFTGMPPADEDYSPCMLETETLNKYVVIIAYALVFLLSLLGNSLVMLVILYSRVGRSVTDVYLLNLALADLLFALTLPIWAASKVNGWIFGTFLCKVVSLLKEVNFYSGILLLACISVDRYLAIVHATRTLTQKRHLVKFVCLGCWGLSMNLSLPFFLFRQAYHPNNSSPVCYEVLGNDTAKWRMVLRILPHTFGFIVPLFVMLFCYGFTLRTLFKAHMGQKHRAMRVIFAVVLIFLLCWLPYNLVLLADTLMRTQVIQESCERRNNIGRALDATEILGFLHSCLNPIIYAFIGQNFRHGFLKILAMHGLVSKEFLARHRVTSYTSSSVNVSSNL
Procedure: as §1, §2

[1] = test system: Jurkat cells endogenously expressing CXCR4; assay: Chemotaxis assay (ChemoTx plates) with Jurkat cells towards CXCL12; assay type: cell-based
Procedure: (§3) HEK293T cells were maintained at 37° C. in a humidified 5% CO2, 95% air atmosphere in Dulbecco's modified Eagle's medium (DMEM) containing 2 mM L-glutamine, 50 IU/ml penicillin, 50 μg/ml streptomycin, and 10% (v/v) fetal calf serum. Jurkat cells were cultured in a humidified 5% CO2, 95% air atmosphere in a 1:1 mixture of Dulbecco's modified Eagle's medium (DMEM) and Ham's F12 medium containing 2 mM L-glutamine, 50 IU/ml penicillin, 50 μg/ml streptomycin, and 10% (v/v) fetal calf serum. […] [^125 I]-Labelling— Radiolabeling of Nanobodies with ^125I was performed using the Iodo-gen method (Pierce, Rockford, Ill.) according to the manufacturer's protocol. ^125I-labeled Nanobodies was separated from free iodine (>99%) using a Sephadex G-25 gel filtration column (Amersham Biosciences, Piscataway, N.J.). […] Competition Binding Assays— Membranes from HEK293T cells transiently expressing CXCR3 or CXCR4 were prepared 48 h after transfection as follows. Cells were washed and scraped from the cell culture dishes with ice-cold PBS containing 1 mm EDTA. The scraped cells were pelleted at 1500×g for 10 min at 4° C. The pellet was washed and then resuspended in ice-cold membrane buffer (15 mM Tris, pH 7.5, 1 mM EGTA, 0.3 mM EDTA, and 2 mM MgCl2). The cell suspension was homogenized by 10 strokes at 1200 rpm using a Teflon-glass homogenizer and rotor and further subjected to three freeze-thaw cycles using liquid nitrogen. Membranes were separated by centrifugation at 40,000 g for 25 min at 4° C. The membrane pellet was washed and resuspended in ice-cold Tris-sucrose buffer (20 mM Tris, pH 7.4, and 250 mM sucrose) and frozen in liquid nitrogen. The total protein was determined using a Bradford assay (Bio-Rad). Periplasmas (1:10) or ligands were pre-incubated with membranes in binding buffer (50 mM HEPES (pH 7.4), 1 mM CaCl2, 5 mM MgCl2, 100 mM NaCl, 0.5% bovine serum albumin) supplemented with 0.5% BSA for 1 h at 22° C. before the addition of [^125I]-CXCL12 (40 pM) or [^125I]-238D2 (3 nM) or [^125I]-238D4 (3 nM) for additional 2 h at 22° C. […] Membranes were then harvested over polyethylenimine (0.5%)-treated Whatman GF/C filter plates and washed three times with ice cold binding buffer containing 500 mM NaCl. Plates were counted by liquid scintillation. Inositol Phosphate Accumulation Assay— 24 hours post transfection with pcDNA3.1-CXCR4 and pcDNA1-HA-mG {alpha} qi5 (see Verzijl et al, 2008 supra), 250.000 cells were seeded into 24-wells plates and labelled overnight using inositol-free minimal essential medium supplemented with 1 μCi myo-[2-^3H]-inositol. The next day, the cells were washed once to remove not incorporated myo-[2-^3H]-inositol. […] In agonist experiments, the cells were directly stimulated with test compounds and LiCl (10 mM) in assay buffer for 2 h at 37° C. The stimulation was stopped by aspirating the stimulation medium and adding ice-cold 10 mM formic acid. The accumulated inositol phosphates were isolated by anion exchange chromatography and counted by liquid scintillation. CRE Reporter Gene Assay— HEK239T cells were transfected with pCRE/β-galactosidase (Chen W, Shields T S, Stork P J S, Cone R D (1995) Anal Biochem 226:349-354) and plasmids (pcDEF3 or pcDNA3.1) encoding the indicated receptors. 40,000 transfected cells per well were seeded into 96 well plates and grown in DMEM supplemented with 10% fetal calf serum. The medium was replaced 32 h after transfection by serum-free DMEM supplemented with 0.5% bovine serum albumin and ligands as indicated. Following 16 h of ligand incubation, the medium was removed, the cells were lysed in 100 μl of assay buffer (100 mM sodium phosphate buffer at pH 8.0, 4 mM 2-nitrophenol-β-D-pyranoside, 0.5% Triton X-100, 2 mM MgSO4, 0.1 mM MnCl2, and 40 mM β-mercaptoethanol) and incubated at room temperature. […]

CXCR4 (N119A) [2] = molecular target: T2, CXCR4 (N119A) (Homo sapiens, UniProt P61073, N119A); assay: Basal inositol phosphate accumulation in HEK293T cells expressing CXCR4 (N119A); assay type: cell-based; conditions: ligand-induced alteration of basal inositol phosphate accumulation
T2 sequence (P61073 whole entry N119A): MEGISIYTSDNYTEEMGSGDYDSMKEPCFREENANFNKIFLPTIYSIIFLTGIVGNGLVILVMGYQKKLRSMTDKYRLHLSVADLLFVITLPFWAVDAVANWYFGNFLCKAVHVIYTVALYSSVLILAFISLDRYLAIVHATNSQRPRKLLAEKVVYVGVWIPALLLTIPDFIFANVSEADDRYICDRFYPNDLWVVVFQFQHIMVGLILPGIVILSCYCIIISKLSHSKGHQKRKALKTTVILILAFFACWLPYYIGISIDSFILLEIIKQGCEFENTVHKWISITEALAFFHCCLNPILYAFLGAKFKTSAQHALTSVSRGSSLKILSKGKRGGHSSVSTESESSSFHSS
Procedure: as §3, with “indicated.” for “indicated. Following 16 h of ligand incubation, the medium was removed, the cells were lysed in 100 μl of assay buffer (100 mM sodium phosphate buffer at pH 8.0, 4 mM 2-nitrophenol-β-D-pyranoside, 0.5% Triton X-100, 2 mM MgSO4, 0.1 mM MnCl2, and 40 mM β-mercaptoethanol) and incubated at room temperature.”

CXCR3 = molecular target: T3, CXCR3 (Homo sapiens, UniProt P49682); assay: CRE/β-galactosidase reporter gene selectivity screen, CXCR3; assay type: cell-based; conditions: up to 2.5, forskolin 3 μM, agonist at 50-80% Emax
T3 sequence (P49682 1-368): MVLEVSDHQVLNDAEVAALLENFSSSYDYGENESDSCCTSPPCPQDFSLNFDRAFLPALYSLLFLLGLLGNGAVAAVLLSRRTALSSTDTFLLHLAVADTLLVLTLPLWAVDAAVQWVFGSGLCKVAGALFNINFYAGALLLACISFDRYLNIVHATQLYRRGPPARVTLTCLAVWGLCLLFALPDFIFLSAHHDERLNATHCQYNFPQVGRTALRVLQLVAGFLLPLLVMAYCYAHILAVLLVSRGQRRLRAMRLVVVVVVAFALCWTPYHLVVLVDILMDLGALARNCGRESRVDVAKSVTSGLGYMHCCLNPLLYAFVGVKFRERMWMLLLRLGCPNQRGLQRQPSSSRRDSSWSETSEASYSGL
Procedure: as §1, §2

β2-adrenoceptors = molecular target: T4, β2-adrenoceptors (Homo sapiens, UniProt P07550); assay: CRE/β-galactosidase reporter gene selectivity screen, endogenous β2-adrenoceptors of HEK293T cells; assay type: cell-based; conditions: Nanobody 2.5 μM, salbutamol 100 nM, no forskolin
T4 construct: (or mock for the investigation of endogenously expressed β2 adrenoceptors); endogenous in cells; host or cells: HEK293T cells (mock-transfected)
Procedure: as §1, §2

CXCR4 (N119A) [3] = molecular target: T2, CXCR4 (N119A); assay: [125I]-CXCL12 competition binding on the constitutively active CXCR4 mutant N119A; conditions: for binding to / displacement of [125I]-CXCL12 from CXCR4 (N119A): highest test concentration 2 μM, n=3
Procedure: HEK293T cells were maintained at 37° C. in a humidified 5% CO2, 95% air atmosphere in Dulbecco's modified Eagle's medium (DMEM) containing 2 mM L-glutamine, 50 IU/ml penicillin, 50 μg/ml streptomycin, and 10% (v/v) fetal calf serum. Jurkat cells were cultured in a humidified 5% CO2, 95% air atmosphere in a 1:1 mixture of Dulbecco's modified Eagle's medium (DMEM) and Ham's F12 medium containing 2 mM L-glutamine, 50 IU/ml penicillin, 50 μg/ml streptomycin, and 10% (v/v) fetal calf serum. […] [^125 I]-Labelling— Radiolabeling of Nanobodies with ^125I was performed using the Iodo-gen method (Pierce, Rockford, Ill.) according to the manufacturer's protocol. ^125I-labeled Nanobodies was separated from free iodine (>99%) using a Sephadex G-25 gel filtration column (Amersham Biosciences, Piscataway, N.J.). […] Competition Binding Assays— Membranes from HEK293T cells transiently expressing CXCR3 or CXCR4 were prepared 48 h after transfection as follows. Cells were washed and scraped from the cell culture dishes with ice-cold PBS containing 1 mm EDTA. The scraped cells were pelleted at 1500×g for 10 min at 4° C. The pellet was washed and then resuspended in ice-cold membrane buffer (15 mM Tris, pH 7.5, 1 mM EGTA, 0.3 mM EDTA, and 2 mM MgCl2). The cell suspension was homogenized by 10 strokes at 1200 rpm using a Teflon-glass homogenizer and rotor and further subjected to three freeze-thaw cycles using liquid nitrogen. Membranes were separated by centrifugation at 40,000 g for 25 min at 4° C. The membrane pellet was washed and resuspended in ice-cold Tris-sucrose buffer (20 mM Tris, pH 7.4, and 250 mM sucrose) and frozen in liquid nitrogen. The total protein was determined using a Bradford assay (Bio-Rad). Periplasmas (1:10) or ligands were pre-incubated with membranes in binding buffer (50 mM HEPES (pH 7.4), 1 mM CaCl2, 5 mM MgCl2, 100 mM NaCl, 0.5% bovine serum albumin) supplemented with 0.5% BSA for 1 h at 22° C. before the addition of [^125I]-CXCL12 (40 pM) or [^125I]-238D2 (3 nM) or [^125I]-238D4 (3 nM) for additional 2 h at 22° C. […] Membranes were then harvested over polyethylenimine (0.5%)-treated Whatman GF/C filter plates and washed three times with ice cold binding buffer containing 500 mM NaCl. Plates were counted by liquid scintillation. Inositol Phosphate Accumulation Assay— 24 hours post transfection with pcDNA3.1-CXCR4 and pcDNA1-HA-mG {alpha} qi5 (see Verzijl et al, 2008 supra), 250.000 cells were seeded into 24-wells plates and labelled overnight using inositol-free minimal essential medium supplemented with 1 μCi myo-[2-^3H]-inositol. The next day, the cells were washed once to remove not incorporated myo-[2-^3H]-inositol. […] The accumulated inositol phosphates were isolated by anion exchange chromatography and counted by liquid scintillation. […]

[4] = Jurkat/0.3 nM CXCL12, monovalent Nanobodies, mean ± S.E.M.

binding affinity at CXCR4 (N119A) compared to the wild type receptor (CXCR4 (N119A) [3]): somewhat less
binding to / displacement of [125I]-CXCL12 from CXCR4 (N119A) (CXCR4 (N119A) [3]): displace; also recorded: able to bind
B1: 238D4: Nanobody (VHH) raised against human CXCR4, SEQ ID NO: 239 (protein)
VHH: EVQLMESGGGLVQAGGSLRLSCAASGRTFNNYAMGWFRRAPGKEREFVAAITRSGVRSGVSAIYGDSVKDRFTISRDNAKNTLYLQMNSLKPEDTAVYTCAASAIGSGALRRFEYDYSGQGTQVTVSS
modifications: Nanobody, Nanobody constructs or fragments thereof
effect on agonist-induced response at CXCR6 (CXCR6): do not act as agonists or antagonists; also recorded: do not alter
effect on agonist-induced response at CXCR1 (CXCR1): do not act as agonists or antagonists; also recorded: do not alter
inhibition of migration of Jurkat cells towards CXCL12 ([1]; 300 pM CXCL12): concentration-dependently inhibited
Imax (%), Chemotaxis [1, 4]: 101 ± 4%
induction of migration of Jurkat cells (agonism) ([1]; test compound in lower compartment): unable to induce any significant migration
functional profile at CXCR4 (N119A) (CXCR4 (N119A) [2]): inverse antagonists; also recorded: partial inverse agonists
effect on agonist-induced response at CXCR3 (CXCR3): do not act as agonists or antagonists; also recorded: do not alter
effect on activation of endogenous β2-adrenoceptors by salbutamol (β2-adrenoceptors): do not act as agonists or antagonists; also recorded: did not inhibit

pKi or pIC50, Chemotaxis [1, 4]: 8.33 ± 0.16
binding affinity at CXCR4 (N119A) compared to the wild type receptor (CXCR4 (N119A) [3]): somewhat less
binding to / displacement of [125I]-CXCL12 from CXCR4 (N119A) (CXCR4 (N119A) [3]): displace; also recorded: able to bind
B2: 238D2: Nanobody (VHH) raised against human CXCR4, SEQ ID NO: 238 (protein)
VHH: EVQLVESGGGLVQTGGSLRLSCAASGFTFSSYAMSWVRQAPGKGLEWVSGIKSSGDSTRYAGSVKGRFTISRDNAKNMLYLQMYSLKPEDTAVYYCAKSRVSRTGLYTYDNRGQGTQVTVSS
modifications: Nanobody, Nanobody constructs or fragments thereof
effect on agonist-induced response at CXCR6 (CXCR6): do not act as agonists or antagonists; also recorded: do not alter
effect on agonist-induced response at CXCR1 (CXCR1): do not act as agonists or antagonists; also recorded: do not alter
Imax (%), Chemotaxis [1, 4]: 106 ± 2%
functional profile at CXCR4 (N119A) (CXCR4 (N119A) [2]): neutral antagonist; also recorded: Neither significant agonistic nor inverse antagonistic activity
effect on agonist-induced response at CXCR3 (CXCR3): do not act as agonists or antagonists; also recorded: do not alter
effect on activation of endogenous β2-adrenoceptors by salbutamol (β2-adrenoceptors): do not act as agonists or antagonists; also recorded: did not inhibit
